Molecular target: T1, TipR (Caulobacter crescentus NA1000) (UniProt A0A0H3C6G9)
T1 sequence: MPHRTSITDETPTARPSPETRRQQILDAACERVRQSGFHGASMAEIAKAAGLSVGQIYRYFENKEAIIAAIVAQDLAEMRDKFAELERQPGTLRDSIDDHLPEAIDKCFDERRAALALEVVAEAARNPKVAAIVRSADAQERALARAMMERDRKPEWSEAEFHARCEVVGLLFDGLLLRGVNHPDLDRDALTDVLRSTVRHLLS
Test: EMSA
Conditions: EMSA: 40 mM Tris-HCl pH 7.6, 60 mM KCl, 0.1% glycerol, 240 ug calf DNA, 800 ug BSA, 100-200 ng probe, 30 min room temperature; 4% native TBE acrylamide gel

Sequence: GGCGGCGAGTCCCACGGTCGTCGCCGCGACCGAGCGTTGGAAATGCATGTTTGACCCCGGGAGGCGAGGGTCGCGCGGGCTCTTACCCTTGACGCGGCCACTATGATGAACGATTTGAGAATGAACGTTCATTCTCATGTGGGCTGGACATAAGAGCTGGAGTGTCGCAAGTCAACCTCCGGCGCCGCGCGTTTGGCTGACCTAACGGAAATGTAATGCCGCACAGGACTTC (double strand) [PacrA]
- binding: binds

— PMC10754441
